Reference: patent US20220332804A1 (CSL INNOVATION, published 2022)
Positions count from the first letter of the chain named.

Tests used:
Experiment in all cases: SPR; KD relative to WT C2;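 also: biacore SPR at 37 °C, anti-C2 mAbs captured on an anti-human IgG chip, alanine or serine C2 surface mutants tested, KD from 1:1 fit compared with wild-type C2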
human C2 M316A = target: T1, human C2 M316A (human, UniProt P06681 21-752)
T1 sequence: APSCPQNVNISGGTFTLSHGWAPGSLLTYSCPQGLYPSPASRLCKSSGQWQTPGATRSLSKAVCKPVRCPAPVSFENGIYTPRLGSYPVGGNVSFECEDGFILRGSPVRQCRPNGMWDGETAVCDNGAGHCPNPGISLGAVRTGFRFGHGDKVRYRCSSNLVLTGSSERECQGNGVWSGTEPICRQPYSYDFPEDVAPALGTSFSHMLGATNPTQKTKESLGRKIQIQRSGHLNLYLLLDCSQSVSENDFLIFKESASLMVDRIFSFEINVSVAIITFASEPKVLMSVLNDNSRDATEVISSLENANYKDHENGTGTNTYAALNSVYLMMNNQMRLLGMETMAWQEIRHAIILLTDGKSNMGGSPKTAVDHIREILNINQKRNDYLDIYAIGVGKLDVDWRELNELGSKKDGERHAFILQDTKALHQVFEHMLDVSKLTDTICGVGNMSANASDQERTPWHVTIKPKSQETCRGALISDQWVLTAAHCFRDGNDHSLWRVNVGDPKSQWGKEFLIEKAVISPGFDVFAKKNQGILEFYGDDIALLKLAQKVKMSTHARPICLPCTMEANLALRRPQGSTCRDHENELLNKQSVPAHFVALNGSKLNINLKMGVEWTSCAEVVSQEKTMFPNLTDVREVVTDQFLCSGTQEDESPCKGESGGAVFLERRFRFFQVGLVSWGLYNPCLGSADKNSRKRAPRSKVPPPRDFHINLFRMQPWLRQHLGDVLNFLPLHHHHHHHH

human C2 K430A = target: T2, human C2 K430A (human, UniProt P06681 21-752)
T2 sequence: T1 sequence with A296M, K410A

human C2 V455A = target: T3, human C2 V455A (human, UniProt P06681 21-752)
T3 sequence: T1 sequence with A296M, V435A

human C2 N325A = target: T4, human C2 N325A (human, UniProt P06681 21-752)
T4 sequence: T1 sequence with A296M, N305A

Fold diff (human C2 M316A): 1 fold
Fold diff (human C2 K430A): 10 fold
Fold diff (human C2 V455A): 0 fold
Fold diff (human C2 N325A): 11 fold
B1: RF16-214 (antibody, V domains shown)
VH: EVQLLESGGGLVQPGGSLRLSCAASGFTFSWYQMMWVRQAPGKGLEWVSRIYPSGGGTAYADSVKGRFTISRDNSKNTLYLQMNSLRAEDTAVYYCARDAGYGDNWGQGTLVTVSS
VL: QSALTQPPSVSVSPGQTASITCSGDKLGEKYASWYQQKAGQSPVMVIYQDRKRPSGIPERFSGSNSGNTATLTISGTQAMDEADYYCQAWDTRAVVFGGGTKLTVLG
